Measured values taken from patent US20210355194A1 (TWIST BIOSCIENCE, published 2021).
Like-named read-outs stand apart in the source and are kept apart here.

Legend:
[1] = target: SARS-COV2-S1 RBD (mouse IgG2Fc tag) (SARS-CoV-2, UniProt P0DTC2 319-537)
[2] = target: T1, Acro SARS-CoV-2 (COVID-19) S1 protein (SARS-CoV-2, UniProt P0DTC2 16-685); test: SPR
T1 construct: also called SARS-CoV-2 S1

[3] = target: SARS-CoV-2 spike on live SARS-CoV-2 virus (SARS-CoV-2, UniProt P0DTC2 14-1273); test: cell-based or functional assay
SARS-CoV-2 S1 protein = target: T2, SARS-CoV-2 S1 protein (SARS-CoV-2, UniProt P0DTC2 16-685); test: phage ELISA screen on S1, mean
T2 construct: also called SARS-CoV-2 Spike Glycoprotein S1; S1 (subunit 1)

[4] = target: T3, Acro SARS-CoV-2 (COVID-19) S1 protein (SARS-CoV-2, UniProt P0DTC2 16-685); test: SPR; remark: listed apart in the source
T3 construct: also called SARS-CoV-2 S1

[5] = target: SARS-COV2-S1 RBD (mouse IgG2Fc tag) (SARS-CoV-2, UniProt P0DTC2 319-537); test: FACS, S1 RBD-mFc on Vero E6 (ACE2)
[6] = target: T4, COVID S1 RBD Fc fusion (Antigen 1) (SARS-CoV-2, UniProt P0DTC2 319-541); test: phage ELISA
T4 construct: domain: S1 RBD

[7] = target: T5, COVID S1 RBM Fc fusion (Antigen 2) (SARS-CoV-2, UniProt P0DTC2 437-508); test: phage ELISA
T5 construct: domain: S1 RBM

Binder | IC50 [1] [nM] | Kd [2] [nM] | other results
variant 6-44 (Fc fusion) VHH: EVQLVESGGGLVQPGGSLRLSCAASGGTFGVYHMGWFRQAPGKEREFIGRITWTDGSTYYADSVKGRFTISADNSKNTAYLQMNSLKPEDTAVYYCFGLLEVYDMTFDYWGQGTLVTVSS | 0.97 | 8.2 | EC80 [3]: 3.16 µg/mL
variant 6-45 (Fc fusion) VHH: EVQLVESGGGLVQPGGSLRLSCAASGNMFSINAMGWFRQAPGKEREFVTLISWSSGRTSYADSVKGRFTISADNSKNTAYLQMNSLKPEDTAVYYCASLGYCSGGSCFDYWGQGTLVTVSS | 1.16 | 17.5 | EC80 [3]: 4.02 µg/mL
2-4 (antibody, V domains shown, also called variant 2-4) VH: EVQLLESGGGLVQPGGSLRLSCAASGFTFSDFAMAWVRQAPGKGLEWVSAISGSGDITYYADSVKGRFTISRDNSKNTLYLQMNSLRAEDTAVYYCAREADGLHSPWHFDLWGQGTLVTVSS VL: DIQMTQSPSSLSASVGDRVTITCRASQSIDTYLNWYQQKPGKAPKLLIYAASALASGVPSRFSGSGSGTDFTLTISSLQPEDFATYYCQQSYSAPPYTFGQGTKVEIK |  |  | ELISA(Avg) (SARS-CoV-2 S1 protein): 15.5 fold over background
variant 5-1 (Fc fusion, VHH-Fc) VHH: EVQLVESGGGLVQPGGSLRLSCAASGGTFSSIGMGWFRQAPGKEREFVAAISWDGGATAYADSVKGRFTISADNSKNTAYLQMNSLKPEDTAVYYCAKEDVGKPFDWGQGTLVTVSS |  |  | Kd [4]: 15.1 nM; Competition Factor [5]: 10
variant 5-34 (Fc fusion, VHH-Fc) VHH: EVQLVESGGGLVQPGGSLRLSCAASGRTFSRYIMGWFRQAPGKEREFVAAISWSGGDNTYYADSVKGRFTISADNSKNTAYLQMNSLKPEDTAVYYCAAYRIVVGGTSPGDWRWGQGTLVTVSS |  |  | Competition Factor [5]: 5.69
variant 6-39 (Fc fusion) VHH: EVQLVESGGGLVQPGGSLRLSCAASGFTFSPSWMGWFRQAPGKEREFVAAISWSGGSTAYADSVKGRFTISADNSKNTAYLQMNSLKPEDTAVYYCHGLGEGDPYGDYEGYFDLWGQGTLVTVSS | 1.53 | 11.3 | 
variant 6-30 (Fc fusion) VHH: EVQLVESGGGLVQPGGSLRLSCAASGFAFGDSWMGWFRQAPGKEREFVATINWSGVTAYADSVKGRFTISADNSKNTAYLQMNSLKPEDTAVYYCARADGYFDYWGQGTLVTVSS | 2.94 | 11.8 | 
variant 6-77 (Fc fusion) VHH: EVQLVESGGGLVQPGGSLRLSCAASGFTFDRSWMGWFRQAPGKEREFVAAVTEGGTTSYADSVKGRFTISADNSKNTAYLQMNSLKPEDTAVYYCARADYDFDYWGQGTLVTVSS | 4.04 | 24.6 | 
variant 6-34 (Fc fusion) VHH: EVQLVESGGGLVQPGGSLRLSCAASGSAFRSNAMGWFRQAPGKEREFVAHISWSSKSTYYADSVKGRFTISADNSKNTAYLQMNSLKPEDTAVYYCATYCSSTSCFDYWGQGTLVTVSS | 8.24 | 21.3 | 
variant 6-38 (Fc fusion) VHH: EVQLVESGGGLVQPGGSLRLSCAASGNTFSGGFMGWFRQAPGKEREFVAVISSLSSKSYADSVKGRFTISADNSKNTAYLQMNSLKPEDTAVYYCAKVDSGYDYWGQGTLVTVSS | 1.94 | 26.6 | 
variant 6-10 (Fc fusion) VHH: EVQLVESGGGLVQPGGSLRLSCAASGSIASIHAMGWFRQAPGKEREFVAAISRSGGFGSYADSVKGRFTISADNSKNTAYLQMNSLKPEDTAVYYCARDDKYYDSSGYPAYFQHWGQGTLVTVSS | 1.44 | 29.7 | 
variant 6-18 (Fc fusion) VHH: EVQLVESGGGLVQPGGSLRLSCAASGLTFRNYAMGWFRQAPGKEREFIAGMMWSGGTTTYADSVKGRFTISADNSKNTAYLQMNSLKPEDTAVYYCAREGYYYDSSGYLNYFDYWGQGTLVTVSS | 12.3 | 30.1 | 
variant 6-40 (Fc fusion) VHH: EVQLVESGGGLVQPGGSLRLSCAASGFTFSDYWMGWFRQAPGKERELVARVWWNGGSAYYADSVKGRFTISADNSKNTAYLQMNSLKPEDTAVYYCAREVLRQQVVLDYWGQGTLVTVSS | 1.36 |  | 
variant 6-7 (Fc fusion) VHH: EVQLVESGGGLVQPGGSLRLSCAASGFTFSSYWMGWFRQAPGKEREFVATINWSGVTAYADSVKGRFTISADNSKNTAYLQMNSLKPEDTAVYYCARADDYFDYWGQGTLVTVSS | 1.53 |  | 
variant 6-57 (Fc fusion) VHH: EVQLVESGGGLVQPGGSLRLSCAASGLTFDDHSMGWFRQAPGKEREFVAAVPLSGNTYYADSVKGRFTISADNSKNTAYLQMNSLKPEDTAVYYCASFSGGPADFDYWGQGTLVTVSS | 3.13 |  | 
variant 6-67 (Fc fusion) VHH: EVQLVESGGGLVQPGGSLRLSCAASGSFSNYAMGWFRQAPGKEREFVAAISSSGALTSYADSVKGRFTISADNSKNTAYLQMNSLKPEDTAVYYCWIVGPGPLDGMDVWGQGTLVTVSS | 3.8 |  | 
variant 6-47 (Fc fusion) VHH: EVQLVESGGGLVQPGGSLRLSCAASGRTFSMHAMGWFRQAPGKERELVASITYGGNINYADSVKGRFTISADNSKNTAYLQMNSLKPEDTAVYYCAKEGYYDSTGYRTYFQQWGQGTLVTVSS | 5.86 |  | 
variant 6-41 (Fc fusion) VHH: EVQLVESGGGLVQPGGSLRLSCAASGFTFSTSWMGWFRQAPGKEREFVASINEYGGRNYADSVKGRFTISADNSKNTAYLQMNSLKPEDTAVYYCAGLHYYYDSSGYNPTEYYGMDVWGQGTLVTVSS | 6.6 |  | 
variant 6-54 (Fc fusion) VHH: EVQLVESGGGLVQPGGSLRLSCAASGFEFENHWMGWFRQAPGKEREYVAHITAGGLSNYADSVKGRFTISADNSKNTAYLQMNSLKPEDTAVYYCGRHWGIYDSSGFSSFDYWGQGTLVTVSS | 8.9 |  | 
variant 6-1 (Fc fusion) VHH: EVQLVESGGGLVQPGGSLRLSCAASGRTFGNYNMGWFRQAPGKEREFVATINSLGGTSYADSVKGRFTISADNSKNTAYLQMNSLKPEDTAVYYCARVDYYMDVWGQGTLVTVSS | 15.8 |  | 
variant 6-65 (Fc fusion) VHH: EVQLVESGGGLVQPGGSLRLSCAASGLPFSTLHMGWFRQAPGKEREFVASLSIFGATGYADSVKGRFTISADNSKNTAYLQMNSLKPEDTAVYYCWMYYYDSSGYYGNYYYGMDVWGQGTLVTVSS | 37.5 |  | 
variant 2-9 (antibody, V domains shown) VH: EVQLLESGGGLVQPGGSLRLSCAASGFTFPRYAMSWVRQAPGKGLEWVSTISGSGSTTYYADSVKGRFTISRDNSKNTLYLQMNSLRAEDTAVYYCARLIDAFDIWGQGTLVTVSS VL: DIQMTQSPSSLSASVGDRVTITCRASQRIGTYLNWYQQKPGKAPKLLIYAASNLEGGVPSRFSGSGSGTDFTLTISSLQPEDFATYYCQQNYSTTWTFGQGTKVEIK |  |  | specificity ELISA, fold over background [6]: 24.3 fold over background; specificity ELISA, percent binding relative to Acro S1 [6]: 101%; specificity ELISA, fold over background [7]: 0.8 fold over background; specificity ELISA, percent binding relative to Acro S1 [7]: 3.5%
